Drawing on patent US20090069239, this text covers SPECIFIC ACTIVITY (CPM/µg TOTAL PROTEIN), protein kinase assay (CPM/µg total protein) and SPECIFIC ACTIVITY (CPM/µg TOTAL PROTEIN), protein kinase assay, mean (CPM/µg total protein) for one protein.

The target of this data set is protamine.

Several values for one entry are separate records, joined by “and”; a condition that tells them apart may be missing. Identical values can stand only once.

B1: iridoptin (37-kDa polypeptide expressed from the subgenic istk fragment of Chilo iridescent virus, 6xHis-tagged, Pichia-expressed) (protein)
chain: MDLKDEFIQIIKKYSELSLKESENETKKYIQEVFNVSLSEVFIKEPSKQETLKQEPTQETGCIYIFKKGKNIGQKCGSGKSKFCYKHKKNDLNIKVNQERNIKKPIPKPIPTNKIETGSVINQNWFIGTSIGKGGFGEIYSAAKFNDHGNYKDDDFSFAIKIEPKSGPLFVEMHFYKRVIVEKEIEKFKLQKNIQYLGLPKYYGSGLYNDYRYIVMEKYDSNIDKLFRNGDLNSSTILQIGIQILNIVEYIHSKGYIHADIKGENILLKENDTSHIYLVDFGLCSRYSNG
As to B1, the SPECIFIC ACTIVITY (CPM/µg TOTAL PROTEIN), protein kinase assay (CPM/µg total protein) is 1110 and 895; the SPECIFIC ACTIVITY (CPM/µg TOTAL PROTEIN), protein kinase assay, mean (CPM/µg total protein) amounted to 1000.
